From paper PMC6255834, “Single point mutations reveal amino acid residues important for Chromobacterium violaceum transaminase activity in the production of unnatural amino acids” (Scientific Reports, 2018)

Key:
Assay in all cases: purified protein
purified protein [1] = substrate: CCCCCCC(=O)C(=O)O; conditions: amino acceptor, 10 mM 1-PEA as donor, pH 7, 45 °C
purified protein [2] = substrate: COC(=O)CC(C)=O; conditions: amino acceptor, 10 mM 1-PEA as donor, pH 7, 45 °C, highest concentration tested 20 mM
purified protein [3] = substrate: C[C@H](N)c1ccccc1; conditions: amino donor, full reaction with 2.5 mM 2-OOA as acceptor, pH 7, 45 °C

B1: CV_TA (Chromobacterium violaceum DSM30191 transaminase; ω-TA) (Chromobacterium violaceum ATCC 12472) (protein)
chain: MQKQRTTSQWRELDAAHHLHPFTDTASLNQAGARVMTRGEGVYLWDSEGNKIIDGMAGLWCVNVGYGRKDFAEAARRQMEELPFYNTFFKTTHPAVVELSSLLAEVTPAGFDRVFYTNSGSESVDTMIRMVRRYWDVQGKPEKKTLIGRWNGYHGSTIGGASLGGMKYMHEQGDLPIPGMAHIEQPWWYKHGKDMTPDEFGVVAARWLEEKILEIGADKVAAFVGEPIQGAGGVIVPPATYWPEIERICRKYDVLLVADEVICGFGRTGEWFGHQHFGFQPDLFTAAKGLSSGYLPIGAVFVGKRVAEGLIAGGDFNHGFTYSGHPVCAAVAHANVAALRDEGIVQRVKDDIGPYMQKRWRETFSRFEHVDDVRGVGMVQAFTLVKNKAKRELFPDFGEIGTLCRDIFFRNNLIMRACGDHIVSAPPLVMTRAEVDEMLAVAERCLEEFEQTLKARGLA
Km (purified protein [1]): 400 ± 150 µM | kcat (purified protein [1]): 0.412 ± 0.0733 s⁻¹ | kcat/Km (purified protein [1]): 1030 M⁻¹ s⁻¹ | Km (purified protein [2]): 18800 ± 5000 µM | kcat (purified protein [2]): 0.155 ± 0.0117 s⁻¹ | kcat/Km (purified protein [2]): 8.33 M⁻¹ s⁻¹ | Km (purified protein [3]): 2600 ± 630 µM
